Consider 15 molecules from PMC5828407 (Veterinary Research, 2018).

Where no end group is shown, it is not given here. The star is where a group is joined. FITC = O=C1OC2(c3ccc(O)cc3Oc3cc(O)ccc32)c2ccc(NC(=S)*)cc21; Ahx = NCCCCCC(=O)O

T1: porcine aminopeptidase N (APN), His-tagged whole protein (porcine, UniProt P15145 1-963)
T1 sequence: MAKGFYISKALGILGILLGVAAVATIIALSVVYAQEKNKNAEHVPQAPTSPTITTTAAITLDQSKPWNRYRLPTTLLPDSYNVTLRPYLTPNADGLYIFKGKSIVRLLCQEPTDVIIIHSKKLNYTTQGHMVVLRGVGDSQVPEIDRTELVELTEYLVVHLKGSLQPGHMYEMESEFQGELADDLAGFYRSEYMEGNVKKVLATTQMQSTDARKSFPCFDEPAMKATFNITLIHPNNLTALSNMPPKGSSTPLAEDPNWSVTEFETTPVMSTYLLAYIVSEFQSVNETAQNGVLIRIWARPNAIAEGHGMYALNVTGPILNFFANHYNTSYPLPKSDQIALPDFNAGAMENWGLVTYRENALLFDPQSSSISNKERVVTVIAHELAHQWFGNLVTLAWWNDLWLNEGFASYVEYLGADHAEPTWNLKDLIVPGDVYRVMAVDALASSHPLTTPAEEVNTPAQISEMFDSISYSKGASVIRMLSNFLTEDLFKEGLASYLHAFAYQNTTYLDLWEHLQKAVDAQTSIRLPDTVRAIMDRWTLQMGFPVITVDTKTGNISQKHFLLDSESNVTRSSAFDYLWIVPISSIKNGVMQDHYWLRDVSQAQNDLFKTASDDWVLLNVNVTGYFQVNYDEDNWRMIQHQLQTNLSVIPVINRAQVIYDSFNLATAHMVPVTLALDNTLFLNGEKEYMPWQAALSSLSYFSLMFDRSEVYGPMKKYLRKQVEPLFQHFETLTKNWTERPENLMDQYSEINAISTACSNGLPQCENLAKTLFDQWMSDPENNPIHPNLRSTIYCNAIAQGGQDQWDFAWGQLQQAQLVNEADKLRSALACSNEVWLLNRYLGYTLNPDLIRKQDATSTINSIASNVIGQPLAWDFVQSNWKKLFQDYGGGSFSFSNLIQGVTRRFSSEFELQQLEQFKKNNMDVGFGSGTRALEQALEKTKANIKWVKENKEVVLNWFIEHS

B1: peptide F4ac 200–218 (peptide)
peptide: {FITC-Ahx}-TKLFGSLSRNDILGQIQRV
B2: GST-tagged FaeG fusion protein of F4ad (natural protein)
chain: WMTGDFNGSVDIGGSITADDYRQKWEWKVGTGLNGFGNVLNDLTNGGTKLTITVTGNKPILLGRTKEAFATPVTSGVDGIPHIAFTDYEGASVELRNPDGETEKGLAYFVLPMKNAEGTKVGSVKVNASYAGALGRGGVTSADGELMSLFAEGSHAIFYGGLPTNVKNSELKGGSAAAARTELFGSLSKNDILGQIQRVNANITSLVNVPGSFNENMAYTDGSVVSVAYALGIANGQTIEATFNQAVTTSTQWSAPLNVAITYY
B3: peptide F4ab 148–160 (peptide)
peptide: {FITC-Ahx}-NASYAGVFGKGGV
B4: GST-tagged FaeG fusion protein of F4ab (natural protein)
chain: WMTGDFNGSVDIGGSITADDYRQKWEWKVGTGLNGFGNVLNDLTNGGTKLTITVTGNKPILLGRTKEAFATPVSGGVDGIPQIAFTDYEGASVKLRNTDGETNKGLAYFVLPMKNAEGTKVGSVKVNASYAGVFGKGGVTSADGELFSLFADGLRAIFYGGLTTTVSGAALTSGSAAAARTELFGSLSRNDILGQIQRVNANITSLVDVAGSYREDMEYTDGTVVSAAYALGIANGQTIEATFNQAVTTSTQWSAPLNVAITYY
B5: peptide F4ad 200–218 (peptide)
peptide: {FITC-Ahx}-ARTELFGSLSKNDILGQIQ
B6: APN∆1 (401–963 AA) (domain or fragment)
chain: DLWLNEGFASYVEYLGADHAEPTWNLKDLIVPGDVYRVMAVDALASSHPLTTPAEEVNTPAQISEMFDSISYSKGASVIRMLSNFLTEDLFKEGLASYLHAFAYQNTTYLDLWEHLQKAVDAQTSIRLPDTVRAIMDRWTLQMGFPVITVDTKTGNISQKHFLLDSESNVTRSSAFDYLWIVPISSIKNGVMQDHYWLRDVSQAQNDLFKTASDDWVLLNVNVTGYFQVNYDEDNWRMIQHQLQTNLSVIPVINRAQVIYDSFNLATAHMVPVTLALDNTLFLNGEKEYMPWQAALSSLSYFSLMFDRSEVYGPMKKYLRKQVEPLFQHFETLTKNWTERPENLMDQYSEINAISTACSNGLPQCENLAKTLFDQWMSDPENNPIHPNLRSTIYCNAIAQGGQDQWDFAWGQLQQAQLVNEADKLRSALACSNEVWLLNRYLGYTLNPDLIRKQDATSTINSIASNVIGQPLAWDFVQSNWKKLFQDYGGGSFSFSNLIQGVTRRFSSEFELQQLEQFKKNNMDVGFGSGTRALEQALEKTKANIKWVKENKEVVLNWFIEHS
B7: APN∆5 (332–963 AA) (domain or fragment)
chain: PLPKSDQIALPDFNAGAMENWGLVTYRENALLFDPQSSSISNKERVVTVIAHELAHQWFGNLVTLAWWNDLWLNEGFASYVEYLGADHAEPTWNLKDLIVPGDVYRVMAVDALASSHPLTTPAEEVNTPAQISEMFDSISYSKGASVIRMLSNFLTEDLFKEGLASYLHAFAYQNTTYLDLWEHLQKAVDAQTSIRLPDTVRAIMDRWTLQMGFPVITVDTKTGNISQKHFLLDSESNVTRSSAFDYLWIVPISSIKNGVMQDHYWLRDVSQAQNDLFKTASDDWVLLNVNVTGYFQVNYDEDNWRMIQHQLQTNLSVIPVINRAQVIYDSFNLATAHMVPVTLALDNTLFLNGEKEYMPWQAALSSLSYFSLMFDRSEVYGPMKKYLRKQVEPLFQHFETLTKNWTERPENLMDQYSEINAISTACSNGLPQCENLAKTLFDQWMSDPENNPIHPNLRSTIYCNAIAQGGQDQWDFAWGQLQQAQLVNEADKLRSALACSNEVWLLNRYLGYTLNPDLIRKQDATSTINSIASNVIGQPLAWDFVQSNWKKLFQDYGGGSFSFSNLIQGVTRRFSSEFELQQLEQFKKNNMDVGFGSGTRALEQALEKTKANIKWVKENKEVVLNWFIEHS
B8: FaeG membrane spot 172 (149–161 AA), F4ad (peptide)
peptide: ASYAGALGRGGVT
B9: FaeG membrane spot 50 (148–160 AA), F4ab (peptide)
peptide: NASYAGVFGKGGV
B10: FaeG membrane spots 133–135 (200–218 AA), F4ac (peptide)
peptide: TKLFGSLSRNDILGQIQRV
B11: FaeG membrane spot 125 (176–188 AA), F4ac (peptide)
peptide: LSSIFYGGLPRGS
B12: FaeG membrane spot 59 (175–187 AA), F4ab (peptide)
peptide: LRAIFYGGLTTTV
B13: FaeG membrane spot 181 (176–188 AA), F4ad (peptide)
peptide: HAIFYGGLPTNVK
B14: FaeG membrane spots 189–191 (200–218 AA), F4ad (peptide)
peptide: ARTELFGSLSKNDILGQIQ
B15: FaeG membrane spot 116 (149–161 AA), F4ac (peptide)
peptide: NASYAGVLGRGGV

For one assay, the target named is T1, porcine aminopeptidase N (APN), …. Kind of assay: ELISA; APN protein coated on plates, incubated with FaeG peptides, fusion FaeG proteins or F4 fimbriae; absorbance at 450 nm. To be noted: both partners purified.
As to B1, the binding result is listed as “binds”. Same read-out and setting: as for B2, the entry is “binds”; as for B3, “binds”; as for B4, “binds”. Turning to B5, the binding result is “binds”.

The target of another assay is B6. The assay can be described thus: ELISA; indirect ELISA: APN and its five truncated proteins coated at 100 μg/mL in carbonate-bicarbonate buffer pH 9.6, incubated with 100 μg/mL FaeG fusion protein, detected with anti-F4 monoclonal antibody. The conditions noted are these: both partners purified.
As to B2, the binding result is listed as “binds”.

As for B4, the binding result is listed as “binds”.

In a further assay the target is B7. The description is as above. To be noted: both partners purified.
Regarding B2, the binding result is listed as “binds”. The same measure, in the same setting: as for B4, the entry is “binds”.

In a further assay the target is GST-tagged FaeG fusion protein of F4ac (Escherichia coli, UniProt P14190 22-283). Described as above. To be noted: both partners purified.
For the molecule B6, the binding result is listed as “binds”. The same measure, in the same setting: as for B7, the entry is “binds”.

In the next assay the target is T1, porcine aminopeptidase N (APN), …. Kind of assay: peptide or protein array; FaeG membrane: 205 spots of 13-mers offset by 3 on cellulose membrane, incubated with 1 mg/mL purified soluble APN, blotted with polyclonal antibodies against APN; intensity > 30% of the strongest spot positive. The conditions noted are these: both partners purified.
Take B8: the binding result is on record as “binds”. For B9, the binding result is “binds”. On the same count and under the same terms, as for B10, the entry is “binds”; as for B11, “binds”; as for B12, “binds”. Turning to B13, the binding result was “binds”.

As for B14, the binding result is reported as “binds”. As to B15, the binding result is “binds”.
